One test has as its target T1, mTfR (Mus musculus, UniProt Q62351).
T1 construct: living cells expressing the receptor of interest, namely murine neuroblastoma Neuro-2a cells (N2a); endogenous in cells; host or cells: Neuro-2a (N2a) murine neuroblastoma cells
In words: Competition assay with fluorescent reference C5-Alexa680 on living Neuro-2a cells. In kind it is binding. To be noted: cells expressing murine TfR (Neuro-2a), C5-Alexa680 100 nM, 3 hrs at 37°C; Ki similar or lower than free VHHs. As to the method: (§1) The binding of VHH-Oligo conjugates to mTfR, rhTfR and hTfR was evaluated using a competition assay on living cells expressing the receptor of interest, namely murine neuroblastoma Neuro-2a cells (N2a), CHO cells genetically engineered by the inventors to stably express the macaque rhesus TfR fused to the eGFP protein in C-terminal (CHO-rhTfR-GFP cells), or human breast ductal carcinoma MCF-7 cells, respectively. MCF-7 and N2a cells were grown in Dulbecco's Modified Eagle Medium (DMEM) GlutaMAX supplemented with 10% v/v FBS in 5% CO2 at 37°C. CHO-rhTfR-GFP cells were grown in Ham F12 GlutaMAX supplemented with 10% v/v FBS in 5% CO2 at 37°C. Cells were seeded two days before experiments in 96-well plates at a density of 50.000 cells/well. On the day of the experiment, free VHHs or VHH-Oligo conjugates diluted at various concentrations in DMEM supplemented with 1% bovine serum albumin (BSA) (MCF-7 and N2a cells) or in Ham F12 supplemented with 1% BSA (CHO-rhTfR-GFP cells) were co-incubated at various concentrations on each cell line during 3 hrs at 37°C with a subsaturating concentration of the fluorescent reference compound C5-Alexa680 (100 nM on N2a and CHO-rhTfR-GFP cell lines, 10 nM on MCF-7 cells). After treatment, cells were washed with D-PBS and dissociated by incubating with Trypsin/EDTA for 5 mins at 37°C, before the addition of cold culture media (4°C) to inhibit Trypsin activity. Resuspended cells were transferred in a 96-deepwell plate (V-bottom) containing 1% fetal bovine serum (FBS) / 0.02% sodium azide in phosphate-buffered saline (PBS) and then centrifuged for 5 min at 2000 rpm at 4°C. After removing the supernatant, 5 mM EDTA in D-PBS and 4% paraformaldehyde (PFA) (v/v 1:1) were added into wells to fix cells for 15 min at room temperature. PFA was removed by centrifugation (5 min, 3000 rpm, 4°C) and cells were resuspended with 5 mM EDTA in D-PBS. Then the cellular A680-associated fluorescence signal was quantified using an Attune™ NxT flow cytometer (Thermo Fisher Scientific) equipped with Attune™ NxT v3.1.2. Experimental data (experimental triplicates) were fitted with GraphPad Prism® software using a nonlinear fit to determine the apparent Ki inhibition constants. Graphs of Figure 1 show representative inhibition curves and tables show means ± SD of at least 2 independent experiments.

The target in another test is T2, hTfR (Homo sapiens, UniProt P02786).
T2 construct: or human breast ductal carcinoma MCF-7 cells, respectively; endogenous in cells; host or cells: MCF-7 human breast ductal carcinoma cells
T2 sequence (P02786 whole entry): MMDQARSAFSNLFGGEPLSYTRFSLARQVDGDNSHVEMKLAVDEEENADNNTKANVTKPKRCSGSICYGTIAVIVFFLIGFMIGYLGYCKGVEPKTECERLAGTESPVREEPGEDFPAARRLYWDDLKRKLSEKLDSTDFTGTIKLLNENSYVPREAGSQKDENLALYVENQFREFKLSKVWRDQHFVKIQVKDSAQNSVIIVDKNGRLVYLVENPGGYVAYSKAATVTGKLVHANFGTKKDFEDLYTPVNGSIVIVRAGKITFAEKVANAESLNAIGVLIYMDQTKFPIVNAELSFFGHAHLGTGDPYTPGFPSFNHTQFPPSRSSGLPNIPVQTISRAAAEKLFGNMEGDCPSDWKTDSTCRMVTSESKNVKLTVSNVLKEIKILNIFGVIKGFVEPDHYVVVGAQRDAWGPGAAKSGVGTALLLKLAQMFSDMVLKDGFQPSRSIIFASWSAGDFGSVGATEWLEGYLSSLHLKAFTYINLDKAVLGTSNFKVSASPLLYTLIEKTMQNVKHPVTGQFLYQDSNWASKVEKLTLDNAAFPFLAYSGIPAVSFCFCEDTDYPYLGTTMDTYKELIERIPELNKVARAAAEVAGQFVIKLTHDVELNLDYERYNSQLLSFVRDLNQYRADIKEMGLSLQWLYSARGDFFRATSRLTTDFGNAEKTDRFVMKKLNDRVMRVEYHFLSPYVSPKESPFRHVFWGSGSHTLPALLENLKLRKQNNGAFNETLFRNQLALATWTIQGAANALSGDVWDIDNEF
The experiment in a line: Competition assay with fluorescent reference C5-Alexa680 on living MCF-7 cells. Type of test: binding. Particulars: cells expressing human TfR (MCF-7), C5-Alexa680 10 nM, 3 hrs at 37°C; Ki similar or lower than free VHHs. As to the method:
as §1

Another test has as its system rhTfR. The experiment in a line: Competition assay with fluorescent reference C5-Alexa680 on living CHO-rhTfR-GFP cells. To be noted: cells expressing macaque rhesus TfR (CHO-rhTfR-GFP), C5-Alexa680 100 nM, 3 hrs at 37°C; Ki similar or lower than free VHHs. Type of test: binding. As to the method:
as §1

In the next test the test system is hSOD1 mRNA. In words: Free uptake gene silencing (RT-qPCR) in human cell lines. In kind it is cell-based. To be noted: 3 days, various human cell lines (Figure 2A). As to the method: Human cell lines MCF-7 (breast ductal carcinoma cells), Igrov-1 (ovarian cancer cells) and MIA PaCa-2 cells (pancreatic cancer cells) and the murine neuroblastoma cell line Neuro-2a were grown in DMEM GlutaMAX supplemented with 10% v/v FBS in 5% CO2 at 37°C. For free uptake experiments, cells were seeded in 96-well plates at a density of 2.000 cells/well. Twenty-four hours later, the medium was removed, and cells were further incubated during 3 days in DMEM supplemented with 1% v/v FBS containing various concentrations of free or conjugated oligos. […] Relative RNA expression levels were quantified by RT-qPCR using the TaqMan™ Fast Universal PCR Master Mix (2X) no AmpErase™ UNG kit (Applied Biosystems) and commercially available TaqMan™ probes for murine SOD1, human SOD1 or human MALAT-1 genes (Applied Biosystems). Expression data were analyzed using the DDCq method normalized to the expression of reference RpL 13 or GAPDH genes, based on raw quantification cycle (Cq) values (Bustin et al.) and are presented as mRNA levels relative to untreated cells. Experimental data (experimental triplicates) are presented as means ± standard deviation (SD) and were analysed with GraphPad Prism® software using a three-parameter log(inhibitor) vs. response nonlinear regression to determine the IC50. […]
On the technique in general: Quantitative PCR measures a nucleic acid by following its amplification.

A further test concerns SOD1 mRNA. In words: In vivo mRNA knock-down by VHH-siSOD1h conjugate in non-human primates. On the set-up: species or system olive baboons (Papio Anubis). As to the method:
VHH-siSOD1h conjugates targeting the human and non-human primate (NHP) SOD1 gene were assessed for their ability to mediate SOD1 mRNA knock-down in muscle tissues of olive baboons (Papio Anubis). PBS vehicle (control) or a TfR-binding VHH-siSOD 1h conjugate was administered as a single intravenous (IV infusion, 30 min) in olive baboons (males, 10-17-month-old, 2.6-4.5kg) at the dose of 5 mg/kg (siRNA molar equivalent). At indicated times following administration, approximately 100 mg samples of gastrocnemius, quadriceps and tibialis anterior muscle were withdrawn under general anesthesia, snap-frozen in 10 vol. ofNucleoProtect RNA stabilization reagent (Macherey-Nagel) and stored at -20°C. […] RNA samples were analyzed and dosed using a Fragment Analyzer RNA kit in a Fragment Analyzer system (Agilent). Relative RNA expression levels were quantified by RT-qPCR using the TaqMan™ Fast Universal PCR Master Mix (2X) no AmpErase™ UNG kit (Applied Biosystems) and commercially available TaqMan™ probes for […] and RpL13 genes (Applied Biosystems). Expression data were analyzed using the DDCq method normalized to the expression of the reference RpL13 gene, based on raw quantification cycle (Cq) values (Bustin et al.). The results are expressed as means ± standard error of the mean (SEM) and are presented as mRNA levels relative to the control animals injected with PBS. […]

T1 sequence (Q62351 whole entry): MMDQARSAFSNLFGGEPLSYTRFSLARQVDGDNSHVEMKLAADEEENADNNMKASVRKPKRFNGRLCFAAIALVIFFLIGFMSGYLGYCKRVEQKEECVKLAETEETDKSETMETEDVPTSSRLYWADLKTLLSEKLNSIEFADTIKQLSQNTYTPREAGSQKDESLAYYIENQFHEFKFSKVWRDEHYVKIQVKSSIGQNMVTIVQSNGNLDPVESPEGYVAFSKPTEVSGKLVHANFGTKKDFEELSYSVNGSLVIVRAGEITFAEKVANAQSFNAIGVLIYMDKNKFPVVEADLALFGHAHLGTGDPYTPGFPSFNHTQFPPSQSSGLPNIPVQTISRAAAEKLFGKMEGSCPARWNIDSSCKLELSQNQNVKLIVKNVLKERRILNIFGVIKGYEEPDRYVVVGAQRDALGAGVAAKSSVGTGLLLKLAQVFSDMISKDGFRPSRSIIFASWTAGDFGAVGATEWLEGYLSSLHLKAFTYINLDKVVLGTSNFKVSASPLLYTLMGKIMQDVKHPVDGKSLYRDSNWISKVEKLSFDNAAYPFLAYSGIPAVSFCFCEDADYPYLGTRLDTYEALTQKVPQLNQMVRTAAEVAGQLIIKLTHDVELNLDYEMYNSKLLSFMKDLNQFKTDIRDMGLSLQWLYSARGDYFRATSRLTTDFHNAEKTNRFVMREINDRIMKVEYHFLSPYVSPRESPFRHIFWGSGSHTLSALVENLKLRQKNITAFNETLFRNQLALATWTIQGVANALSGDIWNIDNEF

B1: C5-siSOD1m: VHH-Oligo conjugate of VHH C5 and siSOD1m (conjugate)
VHH: EVQLVESGGGVVQPGGSLKLSCVASGTDFSINFIRWYRQAPGKQREFVAGFTATGNTNYADSMKGRFTISRDNTKNAVYLQIDSLKPEDTAVYYCYMLDKWGQGTQVTVSS
modifications: left off: things letters cannot carry; small tags and cut ends
Take B1: the “inhibition of the binding and uptake of the reference compound” value (“inhibition” for short) with mTfR, with hTfR and in the test on rhTfR was “concentration-dependent inhibition” throughout.

B2: C5-siSOD1h: VHH-Oligo conjugate of VHH C5 and siSOD1h; Figure 12 legend: VHH is C5 (conjugate)
VHH: EVQLVESGGGVVQPGGSLKLSCVASGTDFSINFIRWYRQAPGKQREFVAGFTATGNTNYADSMKGRFTISRDNTKNAVYLQIDSLKPEDTAVYYCYMLDKWGQGTQVTVSS
modifications: left off: things letters cannot carry; small tags and cut ends
As to B2, the “inhibition” value in the test with mTfR, with hTfR and with rhTfR was “concentration-dependent inhibition” each time. Moreover, the “effect on hSOD1 mRNA levels” value in the test with hSOD1 mRNA was “potent and concentration-dependent hSOD1 mRNA downregulation”. Besides, in the test with SOD1 mRNA (all muscle tissues tested (gastrocnemius, quadriceps, tibialis anterior), single IV infusion 5 mg/kg (siRNA molar equivalent) (Figure 12)), the “knock-down of SOD1 mRNA” value was found to be 60%. In addition, in the test with SOD1 mRNA (single IV infusion 5 mg/kg (siRNA molar equivalent)), the duration of knock-down result is given as “more than three months”.

B3: B8-siSOD1m: VHH-Oligo conjugate of VHH B8 and siSOD1m (conjugate)
VHH: EVQLVESGGGVVQPGGSLRLSCAASGEIFSINFMRWYRQAPGKQREWVAGFTRDGSTNYPDSAKGRFTISRDNAKNTVYLQIDSLKPEDTAVYYCYMLDTWGQGTQVTVSS
modifications: left off: things letters cannot carry; small tags and cut ends
With B3, the “inhibition” value with mTfR, with hTfR and with rhTfR was “concentration-dependent inhibition” each time.

B4: B8-siSOD1h: VHH-Oligo conjugate of VHH B8 and siSOD1h (conjugate)
VHH: EVQLVESGGGVVQPGGSLRLSCAASGEIFSINFMRWYRQAPGKQREWVAGFTRDGSTNYPDSAKGRFTISRDNAKNTVYLQIDSLKPEDTAVYYCYMLDTWGQGTQVTVSS
modifications: left off: things letters cannot carry; small tags and cut ends
For B4, the “inhibition” value with mTfR, with hTfR and in the test with rhTfR was “concentration-dependent inhibition” in each case. Further, the “effect on hSOD1 mRNA levels” value in the test with hSOD1 mRNA was “potent and concentration-dependent hSOD1 mRNA downregulation”.

Values taken from patent EP4480964A1, “TRANSFERRIN RECEPTOR-BINDING MOLECULES, CONJUGATES THEREOF AND THEIR USES TO PREVENT OR TREAT MUSCULAR DISEASES” (Vect-Horus, priority 2023, dated 2024).
